Laboratory results taken from the Human Domainome abundance scans (Beltran et al. 2025).
± gives the uncertainty stated by the source.

B1: Telomeric repeat-binding factor 2, residues 489 to 542; numbered along this chain, Q15554 (parent)
chain: KQKWTVEESEWVKAGVQKYGEGNWAAISKNYPFVNRTAVMIKDRWRTMKRLGMN

Variants of: B1
Test: abundance fitness (aPCA) (normalised: wild type 0, dead -1); higher = more abundant; growth selection in yeast, the domain comes from the species named
Conditions: Homo sapiens

Variant	abundance fitness
T47K	-0.05 ± 0.058
T47A	0.059 ± 0.065
T47F	-0.658 ± 0.2
T47W	-0.276 ± 0.065
T47Q	0.042 ± 0.12
T47V	-0.157 ± 0.074
T47N	-0.281 ± 0.38
T47Y	0.015 ± 0.047
N23V	-0.27 ± 0.092
N23Q	0.057 ± 0.41
N23A	-0.298 ± 0.11
N23L	-0.56 ± 0.14
N23W	-0.39 ± 0.26
N23G	-0.61 ± 0.14
N23C	-0.417 ± 0.36
N23I	-0.354 ± 0.23
N23S	-0.238 ± 0.086
S28I	0.196 ± 0.14
S28V	0.121 ± 0.076
S28M	-0.568 ± 0.26
S28F	-0.098 ± 0.11
N35M	-0.555 ± 0.12
N35Y	-0.375 ± 0.15
N35S	-0.27 ± 0.041

Variant	abundance fitness
N35W	-0.588 ± 0.13
N35P	-1.09 ± 0.34
N35I	-0.758 ± 0.14
N35T	-0.476 ± 0.082
N35E	-0.185 ± 0.11
W45A	-0.691 ± 0.06
W45T	-0.986 ± 0.19
W45G	-0.982 ± 0.12
W45Q	-0.914 ± 0.094
W45F	-0.747 ± 0.2
W45I	-0.65 ± 0.074
W45V	-0.866 ± 0.089
A38K	-0.297 ± 0.1
A38D	-0.276 ± 0.08
A38P	0.014 ± 0.054
A38Q	-0.15 ± 0.11
A38F	-0.334 ± 0.16
A38W	0.013 ± 0.068
A38H	-0.413 ± 0.19
A38T	0.188 ± 0.18
A38L	-0.372 ± 0.08
V34G	-0.34 ± 0.043
V34W	-0.366 ± 0.12
V34C	-0.123 ± 0.053

Variant	abundance fitness
N30K	-0.16 ± 0.088
N30S	-0.113 ± 0.058
N30Q	-0.092 ± 0.18
N30C	-0.402 ± 0.099
N30F	-0.422 ± 0.2
N30E	0.077 ± 0.12
R36I	-0.685 ± 0.33
R36W	-0.95 ± 0.14
R36S	-0.654 ± 0.086
R36Y	-0.614 ± 0.25
R36Q	-0.897 ± 0.28
R36V	-0.4 ± 0.051
G15W	-0.284 ± 0.14
G15N	-0.485 ± 0.1
G15K	-0.657 ± 0.23
G15V	-0.587 ± 0.091
A25W	-0.146 ± 0.041
A25R	-0.373 ± 0.12
A25F	0.045 ± 0.13
A25G	-0.13 ± 0.066
A25D	0.472 ± 0.24
A25H	-0.127 ± 0.22
A26C	0.047 ± 0.14
A26Q	0.078 ± 0.15

Variant	abundance fitness
A26N	-0.656 ± 0.22
A26K	-0.005 ± 0.11
A26G	-0.792 ± 0.11
A26D	-0.266 ± 0.14
A26I	-0.177 ± 0.28
A26V	-0.025 ± 0.043
A26Y	-0.288 ± 0.15
K13C	-0.534 ± 0.16
K13G	-0.184 ± 0.05
K13S	-0.128 ± 0.049
K13V	-0.021 ± 0.048
K13A	-0.242 ± 0.1
Y19N	-0.242 ± 0.34
Y19M	-0.464 ± 0.26
Y19C	-0.528 ± 0.18
Y19G	-0.912 ± 0.22
Y19T	-0.395 ± 0.1
Y19K	-0.004 ± 0.13
Y19S	-0.375 ± 0.071
Y19I	-0.051 ± 0.34
Y19A	-0.421 ± 0.066
Y19Q	-0.225 ± 0.099
Y19L	-0.51 ± 0.088
Y19W	-0.557 ± 0.085

Variant	abundance fitness
N54D	-0.038 ± 0.22
N54H	0.092 ± 0.37
N54T	0.544 ± 0.12
N54W	-0.166 ± 0.077
N54G	0.344 ± 0.14
N54F	-0.537 ± 0.28
N54S	-0.051 ± 0.13
L51W	-0.05 ± 0.073
L51T	0.101 ± 0.09
L51M	-0.051 ± 0.065
L51Y	-0.063 ± 0.12
L51V	0.006 ± 0.05
G22K	-0.418 ± 0.16
G22R	-0.261 ± 0.1
G22W	-0.695 ± 0.17
G22M	-0.788 ± 0.15
G22F	-0.338 ± 0.19
G22Y	-0.204 ± 0.068
G22T	-0.467 ± 0.35
W11G	-0.193 ± 0.057
W11P	-0.327 ± 0.19
W11V	-0.47 ± 0.048
W11F	-0.394 ± 0.13
W11H	-0.294 ± 0.16

Variant	abundance fitness
K29W	-0.54 ± 0.13
K29R	-0.281 ± 0.088
K29P	-0.626 ± 0.23
K29H	-0.042 ± 0.23
K29I	-0.221 ± 0.1
K29D	-0.188 ± 0.15
K29S	-0.082 ± 0.053
K29V	-0.066 ± 0.08
T37R	-0.999 ± 0.093
T37G	-0.668 ± 0.063
T37F	-0.629 ± 0.15
T37L	-0.256 ± 0.054
E8G	-0.394 ± 0.099
E8S	-0.65 ± 0.064
E8L	-0.19 ± 0.062
E8I	-0.339 ± 0.099
E8Q	-0.566 ± 0.19
E8V	-0.596 ± 0.12
E8T	-0.485 ± 0.15
D43G	-0.672 ± 0.097
D43Q	-0.07 ± 0.11
D43K	0.011 ± 0.11
D43R	-0.072 ± 0.074
D43C	-0.449 ± 0.091

Variant	abundance fitness
D43M	-0.368 ± 0.083
V12S	-0.356 ± 0.054
V12F	-0.75 ± 0.25
V12W	-0.744 ± 0.13
V12Q	-0.895 ± 0.17
V12A	-0.423 ± 0.075
V12M	-0.132 ± 0.23
V12H	-1.02 ± 0.24
V12Y	-0.855 ± 0.34
R44D	-1.03 ± 0.19
R44G	-0.466 ± 0.058
R44C	-0.214 ± 0.054
R44I	-0.498 ± 0.081
R44F	-0.185 ± 0.048
R44W	-0.397 ± 0.084
R44S	-0.508 ± 0.045
R44Q	-0.079 ± 0.051
R44N	-0.662 ± 0.067
M40P	-0.935 ± 0.1
M40N	-0.53 ± 0.18
M40D	0.106 ± 0.057
M40A	-0.015 ± 0.058
M40T	-0.52 ± 0.058
M40G	-0.406 ± 0.061

Variant	abundance fitness
M40K	-0.377 ± 0.13
M40S	-0.051 ± 0.077
M40Y	-0.869 ± 0.39
M40R	-0.663 ± 0.07
M40E	0.17 ± 0.086
K1R	-0.631 ± 0.16
K1G	-0.585 ± 0.23
K1C	-0.578 ± 0.31
K1D	-0.17 ± 0.16
R46N	0.047 ± 0.17
R46C	-0.133 ± 0.076
R46H	0.011 ± 0.12
R46Y	0.181 ± 0.072
R46T	0.136 ± 0.084
R46I	0.015 ± 0.12
R46W	-0.106 ± 0.039
R46S	0.043 ± 0.06
W4R	-0.747 ± 0.19
W4G	-0.637 ± 0.15
A14W	-0.382 ± 0.18
A14D	-0.041 ± 0.087
A14G	-0.236 ± 0.053
A14E	-0.116 ± 0.14
A14Q	-0.189 ± 0.17

Variant	abundance fitness
R50K	0.178 ± 0.11
R50V	-0.07 ± 0.074
R50T	-0.016 ± 0.046
R50N	-0.054 ± 0.12
R50W	-0.253 ± 0.14
K42Y	-0.448 ± 0.2
K42V	-0.77 ± 0.082
K42L	-0.571 ± 0.071
K42H	-0.881 ± 0.42
K42W	-0.653 ± 0.13
K42M	-0.207 ± 0.057
K42A	-0.141 ± 0.065
K42D	-0.457 ± 0.23
K3T	-0.052 ± 0.048
K3P	-0.01 ± 0.058
K3F	-0.258 ± 0.26
K3C	-0.394 ± 0.14
K3Q	-0.245 ± 0.16
K3W	-0.33 ± 0.093
K3I	-0.278 ± 0.33
K18M	-0.254 ± 0.12
K18A	-0.368 ± 0.13
K18L	-0.342 ± 0.07
K18E	-0.233 ± 0.11

Variant	abundance fitness
K18F	-0.477 ± 0.46
K18N	-0.435 ± 0.18
M48Y	-0.696 ± 0.24
M48E	-0.674 ± 0.24
M48L	-0.177 ± 0.048
M48T	-0.635 ± 0.16
M48F	-0.688 ± 0.34
M48R	-1 ± 0.16
M48C	-0.912 ± 0.28
Q2E	0.254 ± 0.36
Q2M	-0.191 ± 0.29
Q2P	-0.981 ± 0.28
Q2S	-0.175 ± 0.14
K49W	-0.334 ± 0.22
K49C	0.116 ± 0.086
K49P	-0.766 ± 0.2
K49A	-0.29 ± 0.046
K49D	-0.507 ± 0.14
K49N	-0.597 ± 0.16
K49T	-0.142 ± 0.045
E21D	-0.26 ± 0.14
E21G	-0.389 ± 0.084
E21S	-0.323 ± 0.085
E21H	-0.598 ± 0.32

Variant	abundance fitness
E21C	-0.432 ± 0.12
E21Q	-0.634 ± 0.12
G52Q	-0.201 ± 0.11
G52L	-0.195 ± 0.054
G52F	-0.223 ± 0.059
G52C	-0.087 ± 0.061
G52A	-0.304 ± 0.085
G52Y	-0.485 ± 0.19
G52R	-0.119 ± 0.059
G52S	-0.358 ± 0.086
F33D	-1.02 ± 0.35
F33Q	-0.817 ± 0.28
F33K	-0.715 ± 0.21
F33I	-0.834 ± 0.34
F33N	-0.499 ± 0.43
E7G	-0.834 ± 0.11
E7N	-0.721 ± 0.33
E7F	-0.47 ± 0.046
E7Y	-0.329 ± 0.07
Y31N	-0.539 ± 0.056
Y31E	-0.757 ± 0.12
Y31F	-0.417 ± 0.26
Y31S	-0.729 ± 0.069
Y31D	-0.499 ± 0.28

Variant	abundance fitness
Y31G	-0.499 ± 0.074
Y31Q	-0.751 ± 0.05
Y31R	-0.626 ± 0.11
Y31P	-0.389 ± 0.22
Y31C	-0.49 ± 0.16
V39E	0.008 ± 0.07
V39N	0.253 ± 0.089
V39F	-0.274 ± 0.08
V39I	-0.075 ± 0.13
V39S	0.057 ± 0.049
V39Q	0.001 ± 0.087
V39G	-0.005 ± 0.054
P32I	-0.774 ± 0.069
P32F	-0.746 ± 0.045
P32H	-0.574 ± 0.043
P32T	-0.532 ± 0.042
P32L	-0.726 ± 0.037
V6R	0.03 ± 0.054
V6I	0.005 ± 0.046
V6Y	0.192 ± 0.082
V6E	-0.007 ± 0.094
E10G	-0.38 ± 0.095
E10C	-0.277 ± 0.065
E10S	-0.311 ± 0.12

Variant	abundance fitness
E10F	-0.255 ± 0.14
E10I	-0.529 ± 0.17
E10M	-0.055 ± 0.13
E10V	-0.359 ± 0.12
I27A	-0.862 ± 0.24
I27V	-0.545 ± 0.13
I27P	-0.87 ± 0.41
I27M	-0.561 ± 0.22
I27E	-0.938 ± 0.26
I27R	-0.788 ± 0.055
T5M	-0.21 ± 0.088
T5D	-0.38 ± 0.14
T5K	-0.161 ± 0.17
T5L	-0.75 ± 0.13
T5V	-0.789 ± 0.11
T5E	-0.272 ± 0.16
T5Q	-0.502 ± 0.2
T5S	-0.105 ± 0.056
V16G	-0.504 ± 0.062
V16Y	-0.885 ± 0.25
V16D	-0.459 ± 0.091
V16T	-0.157 ± 0.17
V16L	-0.696 ± 0.19
V16I	-0.446 ± 0.2

Variant	abundance fitness
W24E	-0.585 ± 0.16
W24D	-0.72 ± 0.2
W24Q	-0.442 ± 0.34
Q17H	-0.328 ± 0.29
Q17N	-0.295 ± 0.42
Q17W	-0.376 ± 0.1
Q17Y	-0.136 ± 0.13
Q17V	-0.244 ± 0.085
S9G	-0.354 ± 0.058
S9M	0.39 ± 0.11
I41W	-1.01 ± 0.34
I41V	-0.392 ± 0.056
I41T	-0.786 ± 0.28
M53H	-0.249 ± 0.3
M53E	0.01 ± 0.095
M53W	-0.329 ± 0.088
M53V	-0.184 ± 0.07
M53Y	-0.686 ± 0.31
M53K	-0.269 ± 0.19
G20S	-0.488 ± 0.1
G20H	-0.126 ± 0.16
G20A	-1.11 ± 0.29
